# Key:
# Conditions in all cases: 285 mM Tris-HCl pH 8.0, 0.14 mg/mL BSA, 1.43 mM DTT, 5% glycerol, 0.04 mg/mL poly(dI-dC), 3.06 mM EDTA, 10 uL, 30 min at 25 C, 6% PAGE in TAE pH 8.2
# [1] = system: T1, PhaR-His6 (Bradyrhizobium diazoefficiens USDA110), ORF:9916d0df; assay: EMSA
# T1 sequence: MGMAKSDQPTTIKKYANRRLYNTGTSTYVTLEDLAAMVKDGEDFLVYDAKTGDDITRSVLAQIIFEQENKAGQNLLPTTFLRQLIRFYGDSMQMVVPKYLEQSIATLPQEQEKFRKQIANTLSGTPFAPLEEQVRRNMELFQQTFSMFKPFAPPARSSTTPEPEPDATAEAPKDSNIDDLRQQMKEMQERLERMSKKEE
# [2] = system: T1, PhaR-His6 (Bradyrhizobium diazoefficiens USDA110), ORF:9916d0df; assay: DNase I footprinting
# [3] = system: PhaR-His6 (Bradyrhizobium diazoefficiens USDA110); assay: EMSA
substance,measurement,setting,value
CACAAGATGATGCTCGATCACTACCAGCAGACCAAGAATCTCCTGGTCAGCTACAGCCCGAAGAAGCTCGGCTTCTTCTGATCGGAACAGGAGCGGGCGGCGCCGTTCTGGCGCCGCTCGTTCCGGTAAACGGGACCTGGCCCGCACGGCGTTAGATTTGTTGCCTGATCAGCGCCAAAGATTTTCCAATATTTCGATCACGTTGCAGTGCGGCATAATGAATGTCGTGTCATGCCGCCGCGGTGCTTTCCAAGGGTGTTTGACTTGGGTTAGAGAGGACGAAAGTTTTCTCTGACCCGG (double strand) [pdhA promoter],binding,[1],binds more weakly
CTAAGGTGATGTTCTCAAACGGCTTTTGGCCGCTTGCGGAAGCTGAACACGTCCAGGGAATCAAGGTAGGGGTCCGCGGTTTCCAAAAGCTTAAGGAACCCTTGCGGGAAACCCCGGGAATCTCTTCGGTTTGGATCTAGTTTTTGTGCGACGCACAAGATTCTTGACTTTTTTGTGCGTTGCACTAATTGTGGGCAGAGTCAGGGAGCCGGGGCTTCCCGACGCGAGCCAGGGAAAAGGATTCCGAAATGTTCAAGGTTGAAGACTTTCAGAGCTACGGGAAAGAGCAGTTC (double strand) [FAM-phaP1 promoter (footprint)],binding,[2],binds
CTCTCACTTGCAAGACGCTGAGAACGGGAACCCGGCGGCCGATGCCGCAGGGCGGGAAGAGTACGCAACGCAACAAAATAAGCATTTTCAAAGGGGTCACGCTACCGTTTTGTGCGCCACGGTTAATCGGGCAGCAAAAACGT (double strand) [phaR promoter],K half,[1],110 nM
phaR promoter,K half,[3]; half of DNA in complex at highest concentration,110 nM
ppc promoter,K half,[3]; about half of DNA shifted only at highest concentration,110 nM

# From article PMC6201568
